Residue numbers refer to the chain shown, from its start. Values belong to the binder of their own block, whether it stands above or below them.
Columns and labels:
[1] = target: T1, human TNFR2 on the surface of CHO-TNFR2 cells (human, UniProt P20333 23-461); experiment: flow cytometry on CHO-TNFR2 cells; area under the MFI fold curve
T1 construct: whole, on cells
T1 sequence (looked up): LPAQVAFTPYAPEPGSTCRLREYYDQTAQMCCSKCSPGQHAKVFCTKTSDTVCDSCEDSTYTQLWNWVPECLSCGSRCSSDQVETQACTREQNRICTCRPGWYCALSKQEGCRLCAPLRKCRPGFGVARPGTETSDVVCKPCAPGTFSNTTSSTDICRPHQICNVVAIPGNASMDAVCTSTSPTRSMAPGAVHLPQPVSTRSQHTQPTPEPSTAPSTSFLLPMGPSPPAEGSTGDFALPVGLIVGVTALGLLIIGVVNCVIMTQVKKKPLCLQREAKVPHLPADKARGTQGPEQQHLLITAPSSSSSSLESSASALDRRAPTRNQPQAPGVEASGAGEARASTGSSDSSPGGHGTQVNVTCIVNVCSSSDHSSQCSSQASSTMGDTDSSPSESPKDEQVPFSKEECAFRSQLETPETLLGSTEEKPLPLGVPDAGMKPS
Procedure: The transfected full-length plasmid of human TNFR2 was purchased from Sino Biological (Cat #HG10417-UT, NCBI Ref Seq: NM_001066.2). The experiment was conducted at a cell density within 80%. The cell medium was discarded; the cells were rinsed with PBS, and digested with 1 ml trypsin for 2 minutes; the digestion was stopped with a Ham's F12 complete medium containing 10% FBS, and then a cell suspension was made. The cell suspension was counted, and then an appropriate amount of cell suspension was centrifuged at 350×g; the supernatant was discarded; a corresponding volume of blocking solution (10% FBS+PBS) at a density of 1×10⁷ cells/ml was added to resuspend the cells, and the mixture was incubated at 4° C. for 30 minutes. After the incubation, the mixture was centrifuged at 350×g to remove the supernatant, and the cells were resuspended in a staining buffer (2% FBS+PBS) to a density of 2×10⁶ cells/ml, and spread onto a 96-well plate, with 50 μl of cell suspension added to each well for later use. The antibody was diluted with PBS for 10-fold gradient dilution from the highest concentration of 20 μg/m (twice the concentration); the diluted antibody was added to the well containing 50 μl of cell suspension, and placed on a microplate shaker for shaking at 500 rpm for 1 minute, so that the antibody was fully mixed with the cells; the mixture was incubated at 4° C. for 1 h. After the incubation, the cells were washed twice with the staining buffer, with 100 μl per well, and centrifuged at 350-g for 5 minutes, and the supernatant was discarded. The PE goat anti-Human IgG Fc antibody (ebioscience, Cat #12-4998-82) was diluted 250-fold with the staining buffer, with a volume of 100 μl per well added to the washed cell wells; the mixture was mixed evenly, and stained at 4° C. for 30 minutes. After the staining, similarly, the cells were washed twice with the staining buffer; finally, the cells were resuspended in 200 μl of staining buffer; signals were detected by a flow cytometer (Thermo Attune NxT). The stronger the signal, the stronger the binding ability of an antibody to TNFR2. The binding curve of an antibody was drawn with antibody concentration as the abscissa and corresponding mean fluorescence intensity (MFI) fold as the ordinate, and fitted with four parameters (GraphPad Prism9) to calculate the EC50 value.

[2] = target: T1, human TNFR2 on the surface of CHO-TNFR2 …; experiment: competition flow cytometry on CHO-TNFR2 cells, competitor TNFα-biotin; area under the MFI curve; parameters: unit not given beside the values
Procedure: (§1) CHO stable cells highly expressing human TNFR2 were used for the experiment (the same as CHO-TNFR2 in Example 4). The CHO-TNFR2 cells were digested, washed twice with DPBS, then stained with Live/Dead (L/D) (20 minutes at room temperature), and plated at a density of 1×10⁵ cells/50 μl/well. A test anti-TNFR2 antibody was diluted to 6 μg/ml with a staining buffer as the starting concentration: the antibody was subjected to 3.33-fold gradient dilution, with a total of 7 concentration points. The diluted antibody was added to the plated cells at 50 μl/well, and the mixture was mixed well by gentle pipetting, and incubated at 4° C. for 30 minutes. Then the diluted 100 ng/ml of human TNFα-biotin was added at 100 μl/well, and the mixture was mixed well by gentle pipetting, and then incubated at 4° C. for 30 minutes. The mixture was washed twice with a staining buffer, and then 0.12 μg/ml PE-streptavidin (BioLegend, Cat #405204) was added at 100 μl/well; the resulting mixture was incubated at 4° C. for 30 minutes. The mixture was washed twice with a staining buffer, and then 150 μl of staining buffer was added to resuspend the cells; signals were detected by a flow cytometer (Thermo Attune NxT). The inhibitory curve of an antibody was drawn with antibody concentration as the abscissa and corresponding MFI value as the ordinate, and fitted with four parameters (GraphPad Prism9) to calculate the IC50 value. The smaller the IC50 value, the stronger the ability of an antibody to inhibit the binding of human TNFα to human TNFR2. The blocking effect of a humanized antibody was normalized to its corresponding human-murine chimeric WT antibody. The higher the percentage value, the better the inhibitory effect of the humanized antibody.

[3] = target: T1, human TNFR2 on the surface of CHO-TNFR2 …; experiment: competition flow cytometry on CHO-TNFR2 cells, competitor human TNFα-biotin
Procedure: as §1

B2: 219-Hu3 (antibody, V domains shown)
VH: QVQLVQSGAEVKKPGSSVKVSCKASGYSFTNYWMNWVRQAPGQGLEWMGMIHPSDTETRLNQNFKDRVTITADKSTSTAYMELSSLRSEDTAVYYCARGEGLGAARSVSMDYWGQGTLVTVSS
VL: DIQMTQSPSSLSASVGDRVTITCRASQDISNYLNWYQQKPDGTVKLLIYYTAILHSGVPSRFSGSGSGTDYSLTISSLQPEDFATYFCQQGNTLPWTFGQGTKVEIK
notes: also called VH5 + VL5
- AUC [2]: 7590
- AUC [1]: 497
- IC50 [3]: 0.042 µg/mL

B3: 219-Hu5 (antibody, V domains shown)
VH: B2 VH with A72V
VL: B2 VL
notes: also called VH7 + VL5
- AUC [2]: 7260
- AUC [1]: 481
- IC50 [3]: 0.039 µg/mL

B4: 219-Hu4 (antibody, V domains shown)
VH: B2 VH with R38K, M48I, R67K, V68A, I70L, A72V
VL: B2 VL
notes: also called VH6 + VL5
- AUC [2]: 7320
- AUC [1]: 493
- IC50 [3]: 0.043 µg/mL

B6: 219-Hu2 (antibody, V domains shown)
VH: B2 VH with R67K, V68A
VL: B2 VL
notes: also called VH4 + VL5
- AUC [2]: 7340
- AUC [1]: 534
- IC50 [3]: 0.039 µg/mL

B8: 001-WT (antibody, V domains shown)
VH: EVQLQESGGGLVQPGGSLNLSCAASGFAFSTYDLSWVRQTPEKRLEWVAYINNGGISTYYSDTVKGRFTISRDNAKNTLYLQMSSLKSEDTAMYYCVRGPFYGSANYFDYWGQGTTVTVSS
VL: EIVMTQSPASLSLSVGETVTITCRTSESIYSNLPWYQQKQGKSPQLLVYDATKLAEGVPSRFSGSESGTQYSLKINSLQSEDFGTYYCQHFWVTPWTFGGGTKLEIK
notes: Human-murine chimeric wild-type molecule; also called human-murine chimeric antibody WT of #001
- AUC [1]: 490

B9: 001-Hu5 (antibody, V domains shown)
VH: B8 VH with Q5V, N19R, T40A, E42G, R44G, S84N, K87R, S88A, M93V, T116L
VL: DIQMTQSPSSLSASVGDRVTITCRTSESIYSNLPWYQQKPGKSPKLLVYDATKLAEGVPSRFSGSGSGTDYTLTISSLQPEDFATYYCQHFWVTPWTFGQGTKVEIK
notes: Humanized form of #001; also called VH1 + VL4
- AUC [2]: 10200
- AUC [1]: 431
- IC50 [3]: 0.093 µg/mL

B10: 001-Hu3 (antibody, V domains shown)
VH: B8 VH with Q5V, N19R, T40A, E42G, R44G, S84N, K87R, S88A, M93V, T116L
VL: B9 VL with S43A, V48I
notes: Humanized form of #001; also called VH1 + VL3
- AUC [2]: 8810
- AUC [1]: 431
- IC50 [3]: 0.085 µg/mL

B11: 001-Hu4 (antibody, V domains shown)
VH: EVQLVESGGGLVQPGGSLRLSCAASGFAFSTYDLSWVRQAPGKGLEWVAYINNGGISTYYSDTVKGRFTISRDNAKNSLYLQMNSLRAEDTAVYYCVRGPFYGSANYFDYWGQGTLVTVSS
VL: B9 VL
notes: Humanized form of #001; also called VH2 + VL4
- AUC [2]: 10200
- AUC [1]: 452
- IC50 [3]: 0.087 µg/mL

B14: 224-Hu1 (antibody, V domains shown)
VH: QVQLVQSGAEVKKPGASVKVSCKASGFNNKDIYMHWVRQAPGQGLEWIGRIDPATGNTKHDPKFQDRVTMTSDTSTNTVYMELSSLRSEDTAVYYCARSPYGDFGAMDYWGQGTLVTVSS
VL: DIQMTQSPSSLSASVGDRVTITCTASSSVSSNYLHWYQQKPGKAPKLWIYSTSNLPSGVPSRFSGSGSGTDFTLTISSLQPEDFATYYCHQYHRSPWTFGQGTKVEIK
notes: Humanized form of #224; also called VH8 + VL6
- AUC [2]: 20300
- AUC [1]: 642
- IC50 [3]: 0.042 µg/mL

B15: 224-Hu7 (antibody, V domains shown)
VH: QVQLVQSGSELKKPGASVKVSCKASGFNNKDIYMHWVRQAPGQGLEWMGRIDPATGNTKHDPKFQDKAVLSSDTSVSTAYLQISSLKAEDTAVYYCARSPYGDFGAMDYWGQGTLVTVSS
VL: B14 VL with W48L
notes: Humanized form of #224; also called VH9 + VL10
- AUC [2]: 19600
- AUC [1]: 608
- IC50 [3]: 0.065 µg/mL

B18: 224-Hu6 (antibody, V domains shown)
VH: B14 VH
VL: B14 VL with K43S, A44S
notes: Humanized form of #224; also called VH8 + VL7
- AUC [2]: 13900
- AUC [1]: 603
- IC50 [3]: 0.061 µg/mL

Next, values leading:

- AUC [1]: 516
B1: 219-WT (antibody, V domains shown)
VH: EVQLQESGAELVRPGASVKLSCKASGYSFTNYWMNWVKQRPGQGLEWIGMIHPSDTETRLNQNFKDKATLTVDKSSSTSYMQLSSPTSEDSAVYYCARGEGLGAARSVSMDYWGQGTTVTVSS
VL: B2 VL with Q3L, V15L, T22S, L46V, S77N, Q79E, P80Q, F83I, Q100G, V104L
notes: Human-murine chimeric wild-type molecule

- AUC [2]: 7320
- AUC [1]: 565
- IC50 [3]: 0.047 µg/mL
B5: 219-Hu1 (antibody, V domains shown)
VH: B2 VH with S16A, G44R, A72R, K74T, T76A
VL: B2 VL
notes: also called VH3 + VL5

- AUC [1]: 667
B7: 224-WT (antibody, V domains shown)
VH: EVQLQESGPEIVKPGASVKLSCTASGFNNKDIYMHWVKQRPEQGLEWIGRIDPATGNTKHDPKFQDKATLSSDTSSNTAYLQFSSLTSEDTAVYYCAHSPYGDFGAMDYWGQGTTVTVSS
VL: DIQMTQSPAIMSASLGERVTMTCTASSSVSSNYLHWYQQKPGSSPKLWIYSTSNLPSGVPARFSGSGSGTSYSLTISSMEAEDAATYYCHQYHRSPWTFGGGTKLEIK
notes: Human-murine chimeric wild-type molecule; also called human-murine chimeric antibody WT of #224

- AUC [2]: 8840
- AUC [1]: 458
- IC50 [3]: 0.087 µg/mL
B12: 001-Hu1 (antibody, V domains shown)
VH: B11 VH with S78T
VL: B9 VL with S43A, V48L
notes: Humanized form of #001; also called VH1 + VL1

- AUC [2]: 9000
- AUC [1]: 433
- IC50 [3]: 0.101 µg/mL
B13: 001-Hu2 (antibody, V domains shown)
VH: B11 VH
VL: B9 VL with V48I, Y71F
notes: Humanized form of #001; also called VH2 + VL2

- AUC [2]: 18700
- AUC [1]: 675
- IC50 [3]: 0.044 µg/mL
B16: 224-Hu3 (antibody, V domains shown)
VH: B15 VH
VL: B14 VL with W48L, P81A, F84A
notes: Humanized form of #224; also called VH9 + VL8

- AUC [2]: 19200
- AUC [1]: 672
- IC50 [3]: 0.036 µg/mL
B17: 224-Hu2 (antibody, V domains shown)
VH: B15 VH
VL: B14 VL with K43S, A44S
notes: Humanized form of #224; also called VH9 + VL7

- AUC [2]: 14200
- AUC [1]: 621
- IC50 [3]: 0.058 µg/mL
B19: 224-Hu4 (antibody, V domains shown)
VH: B15 VH
VL: B14 VL
notes: Humanized form of #224; also called VH9 + VL6

- AUC [2]: 14600
- AUC [1]: 593
- IC50 [3]: 0.062 µg/mL
B20: 224-Hu5 (antibody, V domains shown)
VH: B15 VH
VL: B14 VL with W48L, F72Y, T73S
notes: Humanized form of #224; also called VH9 + VL9

— patent publication US20240109974A1 (SHANDONG SIMCERE BIOPHARMACEUTICAL, published 2024)
